# In patent US5576295A, “Agent for suppressing the motor activity of gastrointestinal tracts” (Nisshin Flour Milling Co., Ltd., priority 1993, dated 1996):
# B1: Glicentin: One of enteroglucagons, a peptide comprising 69 amino acid residues; human glicentin (SEQ ID NO: 1) prepared by genetic engineering (protein)
# chain: RSLQDTEEKSRSFSASQADPLSDPDQMNEDKRHSQGTFTSDYSKYLDSRRAQDFVQWLMNTKRNRNNIA
# What was measured:
# [1] = system: motor activity of gastrointestinal tracts; assay: Motor activity of gastrointestinal tracts in the post-feed period in dogs sutured with strain gauge transducers; type: in vivo
# Procedure: An experiment was performed as described below in order to examine the action of glicentin on a motility of gastrointestinal tracts.
# Six hybrid dogs weighing 16-18 kg were sutured with strain gauge transducers (manufactured by Star Medical, F121S) at a site of the gastric antrum 4 cm from the pyloric ring, a site of the duodenum for the main incurrent pancreatic duct and a site of the jejunum 10 cm from the Treitz's ligamentum, respectively, to measure the contractile force intensity of the circular muscle. Recovery period for the suture was 2 weeks.
# Three of the 6 dogs were intravenously given over 1 hour 15 ml of a physiological saline solution in which 400 pmol of glicentin had been dissolved per kg of bodyweight. The remaining three received an aqueous physiological solution containing no glicentin in the same way as above as a control for comparison. The dogs were fed on 15 g of a solid diet (SD®, manufactured by Oriental Yeast K.K.) and 15 g of Vitaone® (manufactured by Nihon Pet Food K.K. and Kyodo Shiryo K.K.) per kg of bodyweight simultaneously with the intravenous administration.
# Then, the motor activity of gastrointestinal tracts and length of the post-feed period were measured. Intensity of the contraction in the post-feed period was integrated for the two-hour measurements and evaluated in comparison with the mean level of the signal peak in phase 3 motor activity of the gastrointestinal tracts in hunger and taken as a motor index.
# [2] = system: male BALB/c mice; assay: Intraperitoneal administration to mice, observation of appearance; type: in vivo; conditions: 10 mg/kg intraperitoneally, male BALB/c mice (6 weeks age)
# [3] = 400 pmol/kg i.v. over 1 hour, post-feed contraction integrated over two hours relative to phase 3 peak in hunger, average ± standard error
# [4] = 400 pmol/kg i.v. over 1 hour, versus control
molecule,measurement,setting,value
B1,Length of post-feed period,"[1]; 400 pmol/kg glicentin intravenously over 1 hour, fed simultaneously, average ± standard error",13.6 ± 1.0 h
same,"Motor index, duodenum",[1]; [3],0.675 ± 0.4
same,"Motor index, gastric antrum",[1]; [3],0.878 ± 0.1
same,"Motor index, jejunum",[1]; [3],1.087 ± 0.2
same,Influence upon the length of the post-feed period (in words),[1]; [4],no influence upon the length of the post-feed period
same,Post-feed motility in the vestibulum of stomach (in words),[1]; [4],inhibited the post-feed motility in the vestibulum of stomach
same,Change in appearance,[2],no change in appearance is observed
